Laboratory results published in US20240002531A1 (ONO PHARMACEUTICAL, published 2024).
Where two headings read alike, the source gives them in different places. Values belong to the binder of their own block, whether it stands above or below them.

What was measured:
[1] = target: T1, HER2 peptide p614-620 (human); assay: SPR Biacore, mAb on chip, peptide analyte, equilibrium analysis
T1 peptide: WKFPDEE

[2] = target: T2, HER2 peptide p614-621 (human); assay: as above
T2 peptide: WKFPDEEG

[3] = target: T3, HER2-K615A expressed on CHO-K1 cells (human, UniProt P04626 23-1255); assay: flow cytometry on CHO-K1 cells expressing HER2-K615A
T3 construct: also called K615A point mutant; not shown: PA tag at the N terminus; RAP tag and MAP tag at the C terminus

[4] = target: T4, HER2 peptide 613-632 (amino acids 613 to 632 of human HER2) (human); assay: ELISA, peptide coated at 10 µg/ml, antibody 10 µg/ml
T4 construct: Synthetic peptide
T4 peptide: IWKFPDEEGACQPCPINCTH

[5] = target: T5, HER2-F616A expressed on CHO-K1 cells (human, UniProt P04626 23-1255); assay: flow cytometry on CHO-K1 cells expressing HER2-F616A
T5 construct: also called F616A point mutant; not shown: PA tag at the N terminus; RAP tag and MAP tag at the C terminus

[6] = target: T6, HER2 peptide p611-619 (human); assay: SPR Biacore, mAb on chip, peptide analyte, 1:1 fit
T6 peptide: MPIWKFPDE

[7] = target: T7, HER2 peptide p610-618 (human); assay: SPR Biacore, mAb on chip, peptide analyte, 1:1 fit
T7 peptide: YMPIWKFPD

[8] = target: T8, HER2 peptide p611-618 (human); assay: SPR Biacore, mAb on chip, peptide analyte, 1:1 fit
T8 peptide: MPIWKFPD

[9] = target: T9, HER2 peptide p610-621 (human); assay: SPR Biacore, mAb on chip, peptide analyte, 1:1 fit
T9 peptide: YMPIWKFPDEEG

[10] = target: T10, HER2 peptide p613-620 (human); assay: SPR Biacore, mAb on chip, peptide analyte, 1:1 fit
T10 peptide: IWKFPDEE

[11] = target: T11, HER2 peptide p612-622 (human); assay: SPR Biacore, mAb on chip, peptide analyte, 1:1 fit
T11 peptide: PIWKFPDEEGA

[12] = target: T12, HER2 peptide p612-619 (human); assay: SPR Biacore, mAb on chip, peptide analyte, 1:1 fit
T12 peptide: PIWKFPDE

[13] = target: T13, HER2 peptide p614-622 (human); assay: SPR Biacore, mAb on chip, peptide analyte, 1:1 fit
T13 peptide: WKFPDEEGA

[14] = target: T14, HER2 peptide p613-618 (human); assay: SPR Biacore, mAb on chip, peptide analyte, 1:1 fit
T14 peptide: IWKFPD

[15] = target: T15, HER2 peptide p613-622 (human); assay: SPR Biacore, mAb on chip, peptide analyte, 1:1 fit
T15 peptide: IWKFPDEEGA

[16] = target: T16, HER2 peptide p603-622 (amino acids 603 to 622 of human HER2) (human); assay: SPR Biacore, mAb on chip, peptide analyte, 1:1 fit
T16 construct: Synthetic peptide; also called wild-type HER2 peptide
T16 peptide: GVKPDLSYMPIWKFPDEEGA

[17] = target: T17, HER2 peptide p612-621 (human); assay: SPR Biacore, mAb on chip, peptide analyte, 1:1 fit
T17 peptide: PIWKFPDEEG

[18] = target: T18, HER2 peptide p609-618 (human); assay: SPR Biacore, mAb on chip, peptide analyte, 1:1 fit
T18 peptide: SYMPIWKFPD

[19] = target: T19, HER2 peptide p614-619 (human); assay: SPR Biacore, mAb on chip, peptide analyte, 1:1 fit
T19 peptide: WKFPDE

[20] = target: T20, HER2 peptide p609-621 (human); assay: SPR Biacore, mAb on chip, peptide analyte, 1:1 fit
T20 peptide: SYMPIWKFPDEEG

[21] = target: T21, HER2 peptide p609-622 (human); assay: SPR Biacore, mAb on chip, peptide analyte, 1:1 fit
T21 peptide: SYMPIWKFPDEEGA

[22] = target: T22, HER2 peptide p612-618 (human); assay: SPR Biacore, mAb on chip, peptide analyte, 1:1 fit
T22 construct: also called PIWKFPD
T22 peptide: PIWKFPD

[23] = target: T23, HER2 peptide p612-620 (human); assay: SPR Biacore, mAb on chip, peptide analyte, 1:1 fit
T23 peptide: PIWKFPDEE

[24] = target: T24, HER2 peptide p611-622 (human); assay: SPR Biacore, mAb on chip, peptide analyte, 1:1 fit
T24 peptide: MPIWKFPDEEGA

[25] = target: T2, HER2 peptide p614-621; assay: SPR Biacore, mAb on chip, peptide analyte, equilibrium analysis
[26] = target: T15, HER2 peptide p613-622; assay: as above

Kd [1]: 26400 nM
Kd [2]: 26600 nM
binding result [3]: binds
binding result [4]: binds
binding result [5]: binds
Kd [6]: 2.02 nM
koff [6]: 0.000487 s⁻¹
kon [6]: 240000 M⁻¹ s⁻¹
Kd [7]: 0.599 nM
koff [7]: 0.000225 s⁻¹
kon [7]: 376000 M⁻¹ s⁻¹
Kd [8]: 0.869 nM
koff [8]: 0.00031 s⁻¹
kon [8]: 356000 M⁻¹ s⁻¹
Kd [9]: 1.36 nM
koff [9]: 0.000347 s⁻¹
kon [9]: 256000 M⁻¹ s⁻¹
Kd [10]: 13.1 nM
koff [10]: 0.00371 s⁻¹
kon [10]: 283000 M⁻¹ s⁻¹
Kd [11]: 3.74 nM
koff [11]: 0.000724 s⁻¹
kon [11]: 194000 M⁻¹ s⁻¹
Kd [12]: 3.36 nM
koff [12]: 0.000841 s⁻¹
kon [12]: 250000 M⁻¹ s⁻¹
Kd [13]: 2910 nM
koff [13]: 0.00145 s⁻¹
kon [13]: 498 M⁻¹ s⁻¹
Kd [14]: 4.45 nM
koff [14]: 0.00289 s⁻¹
kon [14]: 649000 M⁻¹ s⁻¹
Kd [15]: 14 nM
koff [15]: 0.00346 s⁻¹
kon [15]: 247000 M⁻¹ s⁻¹
Kd [16]: 3.67 nM
koff [16]: 0.00033 s⁻¹
kon [16]: 90100 M⁻¹ s⁻¹
Kd [17]: 3.49 nM
koff [17]: 0.000683 s⁻¹
kon [17]: 196000 M⁻¹ s⁻¹
Kd [18]: 0.803 nM
koff [18]: 0.00021 s⁻¹
kon [18]: 262000 M⁻¹ s⁻¹
Kd [19]: 1380 nM
koff [19]: 0.00118 s⁻¹
kon [19]: 854 M⁻¹ s⁻¹
Kd [20]: 1.17 nM
koff [20]: 0.000289 s⁻¹
kon [20]: 247000 M⁻¹ s⁻¹
Kd [21]: 1.57 nM
koff [21]: 0.00033 s⁻¹
kon [21]: 210000 M⁻¹ s⁻¹
Kd [22]: 1.92 nM
koff [22]: 0.00057 s⁻¹
kon [22]: 296000 M⁻¹ s⁻¹
Kd [23]: 4.39 nM
koff [23]: 0.000756 s⁻¹
kon [23]: 172000 M⁻¹ s⁻¹
Kd [24]: 2.02 nM
koff [24]: 0.000378 s⁻¹
kon [24]: 187000 M⁻¹ s⁻¹
B1: H2Mab-250 antibody (antibody, V domains shown)
VH: EVQLVESGGGLVQPGGSLKLSCAASGFTFSNYGMSWVRQTPDRRLELVATINNNGGGTYYPDSVKGRFTISRDNAKNTLYLQMSSLKSEDTAMYYCTSPGLLWDAWGAGTTVTVSS
VL: not shown
notes: Mouse monoclonal from a hybridoma (immunogen HER2ec made in LN229 cells); also called antibody of the present invention

Kd [25]: 229000 nM
Kd [26]: 127000 nM
binding result [4]: binds
B2: H2Mab-214 antibody (antibody, V domains shown)
VH: QVTLKESGPGILQPSQTLSLTCSFSGFSLSTSGMGVSWIRQPSGKGLEWLAHIFWDDDKRYNPSLKSRLTISKDTSRNKVFLKITSVDTADTATYYCARRVVATDWYFDVWGAGTTVTVSS
VL: DIVLTQSPASLAVSLGQRATISCRASESVEYYGTTLMQWYQQKPGQPPKLLIYAASKVESGVPARFSGSGSGTDFSLNIHPVEEDDVAMYFCQQSRKVPLTFGAGTKLELKR
notes: as for B1
